This note sets out measurements from article PMC2584968.

The target in this experiment is three-disulphide variant of core gp120 (HXBc2) (HIV-1 (HXBc2)). Put plainly: SPR. (Surface plasmon resonance follows binding to a sensor surface in real time, without labels.)

The substance CD4-induced antibody 17b showed a fold increase in on-rate (through stabilization) of 95 fold.
